A word on the kcat: it is the number of substrate molecules converted per active site and unit of time at saturation. By kcat/Km is commonly meant the second-order rate constant that governs catalysis at low substrate concentration.

In series [1] the target is aromatic amino acid aminotransferase (Pyrococcus horikoshii, UniProt O59096). The series can be described thus: Amino group transfer reaction with phenylalanine as donor, phenylpyruvic acid traced at 280 nm. It counts as biochemical, Pyrococcus horikoshi. The settings on record: receptor 2-ketoglutaric acid, pH 8.0, 25° C. The method, then: Then, kinetic parameters of each substrate were compared. […] Next, a change in the amount of NADH was traced with a change in absorbance at 340 nm, and then kinetic parameters, Kcat and Km values were measured.
When hydrophobic substrate (phenylalanine) was used as an amino group donor, the amount of reaction product (phenylpyruvic acid) was traced with a change in absorbance at 280 nm, and then Kcat and Km values were measured.

Substrate in series [2]: N[C@@H](CC(=O)O)C(=O)O
The series is described as follows: purified protein, by the assay type. The settings on record: other: amino group donor aspartic acid, receptor 2-ketoglutaric acid, pH 8.0, 25° C.

The nature of series [3]: pH stability by circular dichrograph (CD). It counts as physicochemical, Pyrococcus horikoshi. As to conditions: 25° C. The method, then: pH stability was analyzed using a circular dichrograph (CD, type J-720W, JASCO Corporation). The pH of an enzyme solution (0.1 mg/ml) was varied from 1.0 to 13.0, a change in intensity of negative ellipicity[q] at 25° C. was measured, so that pH stability was found.

Series [4] in a line: Thermal stability: differential scanning calorimeter (DSC). It counts as physicochemical, Pyrococcus horikoshi. The method, then: Thermal stability was analyzed by measurement of residual activity after heating and with a differential scanning calorimeter (DSC).
In measurement with DSC, a DSC (type CSC5100™, Calolimetry Science) was used. Cell temperature was increased from 0 to 125° C. (1 K/min), and then a change in thermal capacity of the enzyme protein in 20 mM phosphate buffer (pH6.5) was measured. Enzyme concentration employed was 1 mg/ml.
(In general: In DSC, transitions show as peaks or steps in heat flow.)

Series [5] in a line: Thermal stability: residual activity after heating. It counts as physicochemical, Pyrococcus horikoshi. The settings on record: pH 6.5, 95° C. for 6 hours, 0.1 mg/ml in 20 mM phosphate buffer. The method, then: Thermal stability was analyzed by measurement of residual activity after heating and with a differential scanning calorimeter (DSC). To measure residual activity after heating, this enzyme (0.1 mg/ml) was heated for a certain period of time at 95° C. and at 110° C. in 20 mM phosphate buffer (pH6.5) and quenched. Then, residual activity was measured.

The next series can be described thus: Isoelectric focusing. It is filed as physicochemical, Pyrococcus horikoshi.
Series [6] is described as follows: Optimum temperature and optimum pH from Kapp, DTNB reduction traced at 412 nm. It is filed as biochemical, Pyrococcus horikoshi. The settings on record: substrates L-cysteic acid and 2-ketoglutaric acid. The method, then: The presence of aminotransferase activity can be determined by any means.
Optimum temperature and optimum pH were measured as described below using L-cysteic acid and 2-ketoglutaric acid as substrates. Optimum temperature was determined according to the temperature dependence of the Kapp value which was determined by varying the reaction temperature from 30° C. to 98° C. in 50 mM phosphate buffer (pH6.5), tracing an increase in absorbance at 412 nm resulting from reduction of 5,5′-Dithiobis ([…]) (DTNB), finding Kapp value from the initial velocity.
Optimum pH was determined according to pH dependence of the Kapp value which was determined under the measurement conditions as described above by maintaining the reaction temperature at 90° C., and varying the pH of an enzyme reaction solution from 3.4 to 7.5, finding Kapp.

In series [1], `N[C@@H](Cc1ccccc1)C(=O)O` [phenylalanine] showed a Kcat of 12 s⁻¹.

B1: aromatic amino acid aminotransferase (Pyrococcus horikoshii OT3) (protein)
chain: MALSDRLELVSASEIRKLFDIAAGMKDVISLGIGEPDFDTPQHIKEYAKEALDKGLTHYGPNIGLLELREAIAEKLKKQNGIEADPKTEIMVLLGANQAFLMGLSAFLKDGEEVLIPTPAFVSYAPAVILAGGKPVEVPTYEEDEFRLNVDELKKYVTDKTRALIINSPCNPTGAVLTKKDLEEIADFVVEHDLIVISDEVYEHFIYDDARHYSIASLDGMFERTITVNGFSKTFAMTGWRLGFVAAPSWIIERMVKFQMYNATCPVTFIQYAAAKALKDERSWKAVEEMRKEYDRRRKLVWKRLNEMGLPTVKPKGAFYIFPRIRDTGLTSKKFSELMLKEARVAVVPGSAFGKAGEGYVRISYATAYEKLEEAMDRMERVLKERKLV
Regarding B1, in series [2], the kcat was found to be 0.18 s⁻¹ and the kcat/Km was 1.7 M⁻¹ s⁻¹.

B2: this enzyme: thermostable aminotransferase of Pyrococcus horikoshi JCM9974, 388 residues, homodimeric, expressed recombinantly in E. coli (protein, listed as Pyrococcus horikoshi)
chain: MALSDRLELVSASEIRKLFDIAAGMKDVISLGIGEPDFDTPQHIKEYAKEALDKGLTHYGPNIGLLELREAIAEKLKKQNGIEADPKTEIMVLLGANQAFLMGLSAFLKDGEEVLIPTPAFVSYAPAVILAGGKPVEVPTYEEDEFRLNVDELKKYVTDKTRALIINSPCNPTGAVLTKKDLEEIADFVVEHDLIVISDEVYEHFIYDDARHYSIASLDGMFERTITVNGFSKTFAMTGWRLGFVAAPSWIIERMVKFQMYNATCPVTFIQYAAAKALKDERSWKAVEEMRKEYDRRRKLVWKRLNEMGLPTVKPKGAFYIFPRIRDTGLTSKKFSELMLKEARVAVVPGSAFGKAGEGYVRISYATAYEKLEEAMDRMERVLKERKLV
For B2, in series [3] (for 24 hours or more, 0.1 mg/ml), the “pH range over which the enzyme remains stable” value was in the range of 4 to 11. In series [3] (pH 6.5), this molecule returned an a-helix content of 40%. Further, in series [4] (DSC, pH 6.5), the denaturation entry is listed as “irreversible”. The molecule further yielded an enthalpy change in series [4] (at the melting temperature, pH 6.5) of 574 kcal/mol. Besides, the “melting temperature (Tm value)” value in series [4] (pH 6.5, 20 mM phosphate buffer, 1 mg/ml, 1 K/min) came out at 120.1 °C. Besides, in series [5], the “residual activity after heating” value is “remained stable, or was not deactivated”. Further, the isoelectric point in “Isoelectric focusing” worked out at 5.2. The molecule further showed an optimum temperature in series [6] (50 mM phosphate buffer pH 6.5, 30° C. to 98° C.) of 90 °C. In addition, the “optimum pH” value in series [6] (90° C., pH 3.4 to 7.5) was 6.0. In addition, in series [6] (pH 6.5, 90° C.), the Kapp value stood at 139 s⁻¹.
